Data: paper doi:10.1101/308353

Target: GFP-βRat CaMKII holoenzyme (rat) (UniProt P08413)
Assay: single molecule TIRF microscopy

UniProt P08413, sequence (P08413 whole entry): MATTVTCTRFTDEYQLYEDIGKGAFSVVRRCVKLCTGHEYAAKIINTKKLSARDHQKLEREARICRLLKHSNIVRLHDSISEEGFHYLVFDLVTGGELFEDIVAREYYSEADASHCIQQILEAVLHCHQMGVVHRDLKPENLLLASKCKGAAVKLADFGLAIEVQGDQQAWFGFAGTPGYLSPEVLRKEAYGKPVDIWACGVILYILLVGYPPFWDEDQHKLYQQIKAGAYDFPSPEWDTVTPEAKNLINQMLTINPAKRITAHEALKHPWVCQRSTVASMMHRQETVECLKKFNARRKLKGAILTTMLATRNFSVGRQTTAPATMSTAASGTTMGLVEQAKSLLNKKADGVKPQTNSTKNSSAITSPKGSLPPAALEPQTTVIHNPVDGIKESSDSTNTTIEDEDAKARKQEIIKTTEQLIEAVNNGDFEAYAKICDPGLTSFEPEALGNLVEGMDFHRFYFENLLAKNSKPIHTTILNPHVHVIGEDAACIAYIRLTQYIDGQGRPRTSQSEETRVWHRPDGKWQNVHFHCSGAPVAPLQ

## Cy3 conjugated G-actin (from UniProt P68135 1-377) (natural protein)
  Pearson's correlation of co-localization: 0.33
